First the molecules themselves.
B1: snRNA-activating protein complex subunit 4 (Homo sapiens), Q5SXM2 (parent)
chain: MDVDAEREKITQEIKELERILDPGSSGSHVEISESSLESDSEADSLPSEDLDPADPPISEEERWGEASNDEDDPKDKTLPEDPETCLQLNMVYQEVIQEKLAEANLLLAQNREQQEELMRDLAGSKGTKVKDGKSLPPSTYMGHFMKPYFKDKVTGVGPPANEDTREKAAQGIKAFEELLVTKWKNWEKALLRKSVVSDRLQRLLQPKLLKLEYLHQKQSKVSSELERQALEKQGREAEKEIQDINQLPEEALLGNRLDSHDWEKISNINFEGSRSAEEIRKFWQNSEHPSINKQEWSREEEERLQAIAAAHGHLEWQKIAEELGTSRSAFQCLQKFQQHNKALKRKEWTEEEDRMLTQLVQEMRVGSHIPYRRIVYYMEGRDSMQLIYRWTKSLDPGLKKGYWAPEEDAKLLQAVAKYGEQDWFKIREEVPGRSDAQCRDRYLRRLHFSLKKGRWNLKEEEQLIELIEKYGVGHWAKIASELPHRSGSQCLSKWKIMMGKKQGLRRRRRRARHSVRWSSTSSSGSSSGSSGGSSSSSSSSSEEDEPEQAQAGEGDRALLSPQYMVPDMDLWVPARQSTSQPWRGGAGAWLGGPAASLSPPKGSSASQGGSKEASTTAAAPGEETSPVQVPARAHGPVPRSAQASHSADTRPAGAEKQALEGGRRLLTVPVETVLRVLRANTAARSCTQKEQLRQPPLPTSSPGVSSGDSVARSHVQWLRHRATQSGQRRWRHALHRRLLNRRLLLAVTPWVGDVVVPCTQASQRPAVVQTQADGLREQLQQARLASTPVFTLFTQLFHIDTAGCLEVVRERKALPPRLPQAGARDPPVHLLQASSSAQSTPGHLFPNVPAQEASKSASHKGSRRLASSRVERTLPQASLLASTGPRPKPKTVSELLQEKRLQEARAREATRGPVVLPSQLLVSSSVILQPPLPHTPHGRPAPGPTVLNVPLSGPGAPAAAKPGTSGSWQEAGTSAKDKRLSTMQALPLAPVFSEAEGTAPAASQAPALGPGQISVSCPESGLGQSQAPAASRKQGLPEAPPFLPAAPSPTPLPVQPLSLTHIGGPHVATSVPLPVTWVLTAQGLLPVPVPAVVSLPRPAGTPGPAGLLATLLPPLTETRAAQGPRAPALSSSWQPPANMNREPEPSCRTDTPAPPTHALSQSPAEADGSVAFVPGEAQVAREIPEPRTSSHADPPEAEPPWSGRLPAFGGVIPATEPRGTPGSPSGTQEPRGPLGLEKLPLRQPGPEKGALDLEKPPLPQPGPEKGALDLGLLSQEGEAATQQWLGGQRGVRVPLLGSRLPYQPPALCSLRALSGLLLHKKALEHKATSLVVGGEAERPAGALQASLGLVRGQLQDNPAYLLLRARFLAAFTLPALLATLAPQGVRTTLSVPSRVGSESEDEDLLSELELADRDGQPGCTTATCPIQGAPDSGKCSASSCLDTSNDPDDLDVLRTRHARHTRKRRRLV
partner: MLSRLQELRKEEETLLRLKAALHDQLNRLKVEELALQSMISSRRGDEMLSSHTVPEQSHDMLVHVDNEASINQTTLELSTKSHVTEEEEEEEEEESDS
B2: snRNA-activating protein complex subunit 5 (Homo sapiens), O75971 (parent)
chain: B1 partner
partner: B1 chain
B3: snRNA-activating protein complex subunit 4 (Homo sapiens), Q5SXM2 (parent)
chain: B1 chain
partner: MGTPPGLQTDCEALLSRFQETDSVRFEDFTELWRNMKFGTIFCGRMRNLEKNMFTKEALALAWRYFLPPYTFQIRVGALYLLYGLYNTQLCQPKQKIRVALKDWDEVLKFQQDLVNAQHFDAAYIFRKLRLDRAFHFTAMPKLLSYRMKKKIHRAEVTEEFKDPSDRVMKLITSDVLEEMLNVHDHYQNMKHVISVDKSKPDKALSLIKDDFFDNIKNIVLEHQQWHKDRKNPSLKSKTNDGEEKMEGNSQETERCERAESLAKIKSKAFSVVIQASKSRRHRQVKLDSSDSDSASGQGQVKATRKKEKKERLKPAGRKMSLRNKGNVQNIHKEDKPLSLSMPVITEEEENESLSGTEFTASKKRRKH

One experiment covers variants of B1. To be noted: with snpc5_human SNAPC5, O75971.
With L89A;V96A, the “effect of a mutation on the interaction” value is recorded as “decreasing interaction strength”.

As for Q94L, the “effect of a mutation on the interaction” value is “disrupting interaction strength”.

As for Q94A, the “effect of a mutation on the interaction” value is “disrupting interaction strength”.

For the variant Q115L, the “effect of a mutation on the interaction” value is listed as “disrupting interaction strength”.

With L101A;L108A, the “effect of a mutation on the interaction” value is “disrupting interaction strength”.

As to L87A;Q94A, the “effect of a mutation on the interaction” value is reported as “disrupting interaction strength”.

As to Q115A;L122A, the “effect of a mutation on the interaction” value is listed as “disrupting interaction strength”.

The variants in the next experiment derive from B2. To be noted: with snpc4_human SNAPC4, Q5SXM2.
Consider MLSRLQELRKEEETLLRAKAALHDQLNRLKVEELALQSMISSRRGDEMLSSHTVPEQSHDMLVHVDNEASINQTTLELSTKSHVTEEEEEEEEEESDS, for which the “effect of a mutation on the interaction” value was “decreasing interaction strength”.

Take MLSRLQELRKEEETALRLKAAAHDQLNRLKVEELALQSMISSRRGDEMLSSHTVPEQSHDMLVHVDNEASINQTTLELSTKSHVTEEEEEEEEEESDS: the “effect of a mutation on the interaction” value was “disrupting interaction strength”.

As to MLSRLQEARKEEETLLRLKAALHDQLNRLKVEELALQSMISSRRGDEMLSSHTVPEQSHDMLVHVDNEASINQTTLELSTKSHVTEEEEEEEEEESDS, the “effect of a mutation on the interaction” value is “decreasing interaction strength”.

On to MLSRLQELRKEEETLLRLKAALHDQLNRAKVEELAAQSMISSRRGDEMLSSHTVPEQSHDMLVHVDNEASINQTTLELSTKSHVTEEEEEEEEEESDS, for which the “effect of a mutation on the interaction” value was “disrupting interaction strength”.

The next experiment covers variants of B3. To be noted: with snpc1_human SNAPC1, Q16533.
On to L1311A, for which the “effect of a mutation on the interaction” value is listed as “decreasing interaction strength”.

As for L1314A, the “effect of a mutation on the interaction” value is “disrupting interaction strength”.

Turning to L1297A;Q1304A, the “effect of a mutation on the interaction” value is reported as “with no effect”.

Regarding L1369A, the “effect of a mutation on the interaction” value is “decreasing interaction strength”.

In the case of L1364A, the “effect of a mutation on the interaction” value was “disrupting interaction strength”.

Consider L1301A;L1308A, for which the “effect of a mutation on the interaction” value is “decreasing interaction strength”.

For the variant L1355A;L1362A, the “effect of a mutation on the interaction” value is on record as “disrupting interaction strength”.

The record behind these values is IntAct's records for PubMed 11056176.
